Laboratory results published in patent publication US20120294822A1 (ALDERBIO, published 2012).

T1: Homo sapiens CGRP-alpha (Calcitonin Gene Related Peptide alpha) (Homo sapiens, -NH2 at the C-terminal end as printed ('wherein the N-terminal phenylalanine is amidated'); 125I radiolabeled in the receptor binding assay of Example 6)
T1 construct: 37-residue synthetic peptide from American Peptides / Bachem; Coated directly on the plate in the ELISA of recombinant antibodies; also called CGRPα; human CGRPα
T1 peptide: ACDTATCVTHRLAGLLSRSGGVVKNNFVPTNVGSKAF


Target: T1, Homo sapiens CGRP-alpha (Calcitonin …)
Test: ELISA, CGRPα coated on plate, anti-human IgG Fc-HRP detection
Procedure: To characterize recombinant expressed antibodies for their ability to bind to human-CGRPα antibody-containing solutions were tested by ELISA. All incubations were done at room temperature. Briefly, Immulon IV plagtes (Thermo Scientific), were coated with a CGRPα containing solution (1 ut/mL in PBS) for 2 hours. CGRPα-coated plates were then washed three times in wash buffer (PBS, 0.05% Tween-20). The plates were then blocked using a blocking solution (PBS, 0.5% fish skin gelatin, 0.05% Tween-20) for approximately one hour. The blocking solution was then removed and the plates were then incubated with a dilution series of the antibody being tested for approximately one hour. At the end of this incubation, the plate was washed three times with wash buffer and further incubated with a secondary antibody containing solution (Peroxidase conjugated affinipure F(ab′)2 fragment goat anti-human IgG, Fc fragment specific (Jackson Immunoresearch) for approximately 45 minutes and washed three times. At that point a substrate solution (TMB peroxidase substrate, BioFx) and incubated for 3 to 5 minutes in the dark. The reaction was stopped by addition of a HCl containing solution (0.5M) and the plate was read at 450 nm in a plate-reader.

| binding result | Binder |
| --- | --- |
| binds | Antibody Ab1 (antibody, human IgG1, kappa, N297A, V domains shown, Chimeric (rabbit variable, human gamma-1/kappa constant) full-length anti-CGRP antibody) VH: QSLEESGGRLVTPGTPLTLTCTVSGLDLSSYYMQWVRQAPGKGLEWIGVIGINDNTYYASWAKGRFTISRASSTTVDLKMTSLTTEDTATYFCARGDIWGPGTLVTVSS VL: QVLTQTASPVSAAVGSTVTINCQASQSVYDNNYLAWYQQKPGQPPKQLIYSTSTLASGVSSRFKGSGSGTQFTLTISDLECADAATYYCLGSYDCSSGDCFVFGGGTEVVVKR |
| binds | Antibody Ab7 (antibody, human IgG1, kappa, N297A, V domains shown, Chimeric full-length anti-CGRP antibody) VH: QEQLKESGGRLVTPGTSLTLTCTVSGIDLSNHYMQWVRQAPGKGLEWIGVVGINGRTYYASWAKGRFTISRTSSTTVDLKMTRLTTEDTATYFCARGDIWGPGTLVTVSS VL: QVLTQTASPVSAAVGSTVTINCQASQSVYNYNYLAWYQQKPGQPPKQLIYSTSTLASGVSSRFKGSGSGTQFTLTISDVQCDDAATYYCLGSYDCSTGDCFVFGGGTEVVVKR |
| binds | Antibody Ab11 (antibody, human IgG1, kappa, N297A, V domains shown, Chimeric full-length anti-CGRP antibody; also called Abll) VH: QSLEESGGRLVTPGGSLTLTCTVSGIDVTNYYMQWVRQAPGKGLEWIGVIGVNGKRYYASWAKGRFTISKTSSTTVDLKMTSLTTEDTATYFCARGDIWGPGTLVTVSS VL: QVLTQTASPVSPAVGSTVTINCRASQSVYYNNYLAWYQQKPGQPPKQLIYSTSTLASGVSSRFKGSGSGTQFTLTISDVQCDDAATYYCLGSYDCSNGDCFVFGGGTEVVVKR |
| binds | Antibody Ab9 (antibody, human IgG1, kappa, N297A, V domains shown, Chimeric full-length anti-CGRP antibody) VH: QSLEESGGRLVTPGTPLTLTCTVSGIGLSSYYMQWVRQSPGRGLEWIGVIGSDGKTYYATWAKGRFTISKTSSTTVDLRMASLTTEDTATYFCTRGDIWGPGTLVTVSS VL: QVLTQTPSPVSAAVGSTVTINCQASQNVYNNNYLAWYQQKPGQPPKQLIYSTSTLASGVSSRFRGSGSGTQFTLTISDVQCDDAATYYCLGSYDCSRGDCFVFGGGTEVVVKR |
| binds | Antibody Ab4 (antibody, human IgG1, kappa, N297A, V domains shown) VH: QSLEESGGRLVTPGTPLTLTCSVSGIDLSGYYMNWVRQAPGKGLEWIGVIGINGATYYASWAKGRFTISKTSSTTVDLKMTSLTTEDTATYFCARGDIWGPGTLVTVSS VL: QVLTQTPSPVSAAVGSTVTINCQASQSVYHNTYLAWYQQKPGQPPKQLIYDASTLASGVPSRFSGSGSGTQFTLTISGVQCNDAAAYYCLGSYDCTNGDCFVFGGGTEVVVKR |
| binds | Antibody Ab2 (antibody, human IgG1, kappa, N297A, Humanized full-length anti-CGRP antibody) heavy: not shown light: QVLTQSPSSLSASVGDRVTINCQASQSVYDNNYLAWYQQKPGKVPKQLIYSTSTLASGVPSRFSGSGSGTDFTLTISSLQPEDVATYYCLGSYDCSSGDCFVFGGGTKVEIKRTVAAPSVFIFPPSDEQLKSGTASVVCLLNNFYPREAKVQWKVDNALQSGNSQESVTEQDSKDSTYSLSSTLTLSKADYEKHKVYACEVTHQGLSSPVTKSFNRGEC |
| binds | Antibody Ab14 (antibody, human IgG1, kappa, N297A, Humanized full-length anti-CGRP antibody) heavy: not shown light: QVLTQSPSSLSASVGDRVTINCQASQNVYNNNYLAWYQQKPGKVPKQLIYSTSTLASGVPSRFSGSGSGTDFTLTISSLQPEDVATYYCLGSYDCSRGDCFVFGGGTKVEIKRTVAAPSVFIFPPSDEQLKSGTASVVCLLNNFYPREAKVQWKVDNALQSGNSQESVTEQDSKDSTYSLSSTLTLSKADYEKHKVYACEVTHQGLSSPVTKSFNRGEC |
| binds | Antibody Ab6 (antibody, human IgG1, kappa, N297A, Humanized full-length anti-CGRP antibody) heavy: not shown light: QVLTQSPSSLSASVGDRVTINCQASQSVYHNTYLAWYQQKPGKVPKQLIYDASTLASGVPSRFSGSGSGTDFTLTISSLQPEDVATYYCLGSYDCTNGDCFVFGGGTKVEIKRTVAAPSVFIFPPSDEQLKSGTASVVCLLNNFYPREAKVQWKVDNALQSGNSQESVTEQDSKDSTYSLSSTLTLSKADYEKHKVYACEVTHQGLSSPVTKSFNRGEC |
| binds | Antibody Ab5 (antibody, human IgG1, kappa, N297A) heavy: not shown light: QVLTQSPSSLSASVGDRVTINCQASQSVYHNTYLAWYQQKPGKVPKQLIYDASTLASGVPSRFSGSGSGTDFTLTISSLQPEDVATYYCLGSYDCTNGDCFVFGGGTKVEIKRTVAAPSVFIFPPSDEQLKSGTASVVCLLNNFYPREAKVQWKVDNALQSGNSQESVTEQDSKDSTYSLSSTLTLSKADYEKHKVYACEVTHQGLSSPVTKSFNRGEC |
| binds | Antibody Ab8 (antibody, human IgG1, kappa, N297A, V domains shown, Humanized full-length anti-CGRP antibody) VH: EVQLVESGGGLVQPGGSLRLSCAVSGIDLSNHYMQWVRQAPGKGLEWVGVVGINGRTYYASWAKGRFTISRDNSKTTVYLQMNSLRAEDTAVYFCARGDIWGQGTLVTVSS VL: QVLTQSPSSLSASVGDRVTINCQASQSVYNYNYLAWYQQKPGKVPKQLIYSTSTLASGVPSRFSGSGSGTDFTLTISSLQPEDVATYYCLGSYDCSTGDCFVFGGGTKVEIKR |
| binds | Antibody Ab12 (antibody, human IgG1, kappa, N297A, V domains shown, Humanized full-length anti-CGRP antibody) VH: EVQLVESGGGLVQPGGSLRLSCAVSGIDVTNYYMQWVRQAPGKGLEWVGVIGVNGKRYYASWAKGRFTISRDNSKTTVYLQMNSLRAEDTAVYFCARGDIWGQGTLVTVSS VL: QVLTQSPSSLSASVGDRVTINCRASQSVYYNNYLAWYQQKPGKVPKQLIYSTSTLASGVPSRFSGSGSGTDFTLTISSLQPEDVATYYCLGSYDCSNGDCFVFGGGTKVEIKR |
| binds | Antibody Ab3 (antibody, human IgG1, kappa, N297A) heavy: not shown light: QVLTQSPSSLSASVGDRVTINCQASQSVYDNNYLAWYQQKPGKVPKQLIYSTSTLASGVPSRFSGSGSGTDFTLTISSLQPEDVATYYCLGSYDCSSGDCFVFGGGTKVEIKRTVAAPSVFIFPPSDEQLKSGTASVVCLLNNFYPREAKVQWKVDNALQSGNSQESVTEQDSKDSTYSLSSTLTLSKADYEKHKVYACEVTHQGLSSPVTKSFNRGEC |
| binds | Antibody Ab10 (antibody, human IgG1, kappa, N297A, Humanized full-length anti-CGRP antibody) heavy: not shown light: QVLTQSPSSLSASVGDRVTINCQASQNVYNNNYLAWYQQKPGKVPKQLIYSTSTLASGVPSRFSGSGSGTDFTLTISSLQPEDVATYYCLGSYDCSRGDCFVFGGGTKVEIKRTVAAPSVFIFPPSDEQLKSGTASVVCLLNNFYPREAKVQWKVDNALQSGNSQESVTEQDSKDSTYSLSSTLTLSKADYEKHKVYACEVTHQGLSSPVTKSFNRGEC |
